Measurements taken from the nanobody polyreactivity screen of Harvey et al. (2022).

experiment: yeast display, Sf9 membrane polyspecificity reagent, FACS + sequencing; frameworks hold sequencing errors
How it was run: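 Nanobodies came from a synthetic yeast display library in Saccharomyces cerevisiae BJ5465, induced with galactose for 36–48 hours and stained for 1 hour at 4 °C with 10% biotinylated, detergent-solubilized Sf9 membrane reagent. Cells were enriched on streptavidin microbeads and then FACS-sorted, with low and high (top ~1%) gates set on anti-HA fluorescence for expression and streptavidin fluorescence for reagent binding. Each polyreactivity label reflects the gate a clone came from. Genes were amplified by colony PCR, sequenced by MiSeq 2 × 250 and filtered by CDR length.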

| Sequence | polyreactivity (PSR sort gate) |
| --- | --- |
| QVQLVESGGGLVQAGGSLRLSCAASGFILRGYAMGWYIQAPGKERELVDVITGRGDRTYYADSVKGRFTISRDNAKNTVYLQMNSLKPEETAVYYCAARAQPGGSSAIKMYYWGQGTQVTVSS | high polyreactivity |
| QVQLVESGGGLVQAGGSLRLSCAASGFILRKYAMGWYRQAPGKERELVAAINGRGGTYYADSVKGRFTISRDNAKNTVYLQMNSLKPEDTAVYYCAAVEWYGYYTYTIDAYDYWGQGTQVTVSS | high polyreactivity |
| QVQLVESGGGLVQAGGSLRLSCAASGFILRNNAMGWSRQAPGKEREFVAAISSGTRTNYADSVKGRFTISSDNAKNTVYLQMNSLKPEDTAVYYCDAYPTRYYVGYDYWGQGTQVTVSS | high polyreactivity |
| QVQLVESGGGLVQAGGSLRLSCAASGFILRYYAMGWYRQPPGKERELVAAISWSGGSTYYADSVMGRFTISRDNAKNTVYLQMNSLKPEDTAVYYCAADRYAILFYAEDYWGQGTQVTVSS | low polyreactivity |
| QVQLVESGGGLVQAGGSLRLSCAASGFILSFYTMGWYRQEPGKERELVAVISSRGGRTYYADSVKGRFTISRDNAKNTVYLQMNSLKPEDTAVYYCNKRYYFPKPFDYWGQGTQVTVSS | high polyreactivity |
| QVQLVESGGGLVQAGGSLRLSCAASGFILSPNTMGWYRLAPGKERELVAAISSDVSTYADSVKGRFTISRDNAKNTVYLQMYSLKPEDTAVYYCNADDFGYASYESWGQGTQVTVSS | low polyreactivity |
| QVQLVESGGGLVQAGGSLRLSCAASGFILTSYAMGWNRQAPGKERELVAAISSRGGRTYYADSVKGRFTISRDNAKNTVYLQMNSLKPEDTAVYYCNAVVYVVGDFDYWGQGTQVTVSS | high polyreactivity |
| QVQLVESGGGLVQAGGSLRLSCAASGFILYFNAMGWYSQAPGKERELVAAITSDGGSTYYADSVKGRFTISRDNAKNTVYLQMNSLKPEDTAVYYCAADASTWYTEEYWGQGTQVTVSS | low polyreactivity |
| QVQLVESGGGLVQAGGSLRLSCAASGFILYYYVMGWYRQAPGKERELVAAISTSGTSTYYADSVKGRFTISRDNAKNTVYLQMNSLKPEDTAVYYCAAEKDSSDIMEYWGQGTQVTVSS | high polyreactivity |
| QVQLVESGGGLVQAGGSLRLSCAASGFISAYYAMGWYRQAPGKEMELVAAISWNGGRTFYADSVKGRFTISRDNAKNTVYLQMNSLKPEDTAVYYCAADGRLRGYGYWGQGTQVTVSS | high polyreactivity |
| QVQLVESGGGLVQAGGSLRLSCAASGFISAYYAMGWYRQAPGKERELVAAISWNGGRTFYADSVKGRFTISRDNAKNTVYLQMNSLKPEDTAVYYCAADGRLRGYGYWGQGTQVTVSS | high polyreactivity |
| QVQLVESGGGLVQAGGSLRLSCAASGFISFAYAMAWYRQAPGKERELVAGISRSGDSTYYADSVKGRFTISRDNAKNTVYLQMNSLKPEDTAVYYCAARQVVWFDYTTAQVGSYKVNYWGQGTQVTVSS | low polyreactivity |
| QVQLVESGGGLVQAGGSLRLSCAASGFISFDNAMGWYRQAPGKERELVAAIRSGGSTNYADSVKGRFTISRDNAKNSVYLQMNSLKPEDTAVYYCAALDQYGYYQKYYYWGQGTQVTVSS | low polyreactivity |
| QVQLVESGGGLVQAGGSLRLSCAASGFISLRNTMGWYRQAPGKERELVAAINWSGGSTYYADSVKGRFTISRDNAKNTVYLQMNSLKPEDTAVYYCAKGPWPPIYRLFPGYAKFGYWGQGTQVTVSS | low polyreactivity |
| QVQLVESGGGLVQAGGSLRLSCAASGFISPPYAMGWYRQAPGKERELVAAIRSSGGSTYYADSVKGRFTISRDNAKNTVYLQMNSLIPEDTAVYYCNADWIYISSYGWYSYDYWGQGTQVTVSS | high polyreactivity |
| QVQLVESGGGLVQAGGSLRLSCAASGFISPSNAMGWYRQAPGKERELVAAIRSSDGSTYYADSVKGRFTISRDNAKNTVYLQMNSLKPEDTAVYYCAAGGSYYRDDYWGQGTQVTVSS | low polyreactivity |
| QVQLVESGGGLVQAGGSLRLSCAASGFISTINVMGWYRQAPGKERELVAAITYIDGSTFYADSVKGRFTISRDNAKNTVYLQMNSLKPEDTAVYYCAADLYQWGAVFLYVRSTGLDYWGQGTQVTVSS | low polyreactivity |
| QVQLVESGGGLVQAGGSLRLSCAASGFISYPYAMGWSRPAPGKERELVAAISSSGGSTYYADSVKGRFTISRDNAKNTVYLQMNSLIPEDTAVYYCAARGFYRSYYWGQGTHVTVSS | high polyreactivity |
| QVQLVESGGGLVQAGGSLRLSCAASGFITWGNAMGWYRQAPGKERELVAAISWRDARTYYADSVKGRFTISRDNAKNTVYLQMNSLKPEDTAVYYCNAVTAYVSRNLRGYRWFDYWGQGTQVTVSS | low polyreactivity |
| QVQLVESGGGLVQAGGSLRLSCAASGFIVGHYAMGWYRQAPGQEREFVAAITSGGTTYYADSVKGRFTISRDNAKNTVYLQMNSLKPEDTAVYYCNADDAFRYYWLGLYDYWGQGTQVTVSS | low polyreactivity |
| QVQLVESGGGLVQAGGSLRLSCAASGFIVTANGMGWDRQAPGQERELVASISRRGGSTYYADSVKGRFTISRDNAKNTVYLQMNSLKPEDTAVYYCAARFYQEWGQGTQVTVSS | high polyreactivity |
| QVQLVESGGGLVQAGGSLRLSCAASGFIYEDYAMGWYRQAPGKERELVAAITWRGGRTYYADCVKGRYTISRDNAKNTVYLQMNSLKPEDTAVYYCRPLVYSYASRYGYWGQGTQVTVLS | high polyreactivity |

| Sequence | polyreactivity (PSR sort gate) |
| --- | --- |
| QVQLVESGGGLVQAGGSLRLSCAASGFIYFDYAMGWDRQAPGKERELVAGISRSGDSTYYADSVKGRFTISRDNAKNTVYLQMNSLKPEDTGVFYCAVVTYRSKAHSSRNGKYYYWGQGTHVTVSS | low polyreactivity |
| QVQLVESGGGLVQAGGSLRLSCAASGFIYGWYAMGWYRQAPGKERELVAAINWSGTSTYYADSVKGRFTISRDNAKNTVYLQMNSLKPEDTAVYYCAAYFQKLPTTGYDYWGQGTQVTVSS | low polyreactivity |
| QVQLVESGGGLVQAGGSLRLSCAASGFIYNKYTMGWYRQAPGKERELVAAIRSSGGSTYYADSVKGRFTISRDNAKNTVYLQMNSLKPEDTAVYYCNALPYQVWKRYSWGQGTQVTVSS | high polyreactivity |
| QVQLVESGGGLVQAGGSLRLSCAASGFIYPYYAMGCYIQAPGKETELVAGISKSGGRTTYADSVKGRFTISRDNAKNTVYLQMNSLKPEDTAVYYCAAVYRAFPIYEDDYWGQGTQVTVSS | high polyreactivity |
| QVQLVESGGGLVQAGGSLRLSCAASGFIYSGYAIGCYRQAPAKERELVDTNSGSGGSTYYADSVKGRFTISRDNAKNTVYLKMNSLKTEDTAVYYCAARQRGGYGYWGQGTQVTESS | high polyreactivity |
| QVQLVESGGGLVQAGGSLRLSCAASGFIYSSYAMGWYRQAPGKERELVAAITRNGGSTYYADSVKGRFTISRDNAKNTVYLQMNSLKPEDTAVYYCAAPRWRGVGRFDYWGQGSQVTVSS | high polyreactivity |
| QVQLVESGGGLVQAGGSLRLSCAASGFIYYSYTMGWYRQAPGKERELVATISSNGGRTYYADSVKGRYTISRDNAKNTVYLQMNSLKPEDTAVYYCATDVPHGYYWSYGDYYWGQRTQVTVSS | low polyreactivity |
| QVQLVESGGGLVQAGGSLRLSCAASGFLFDFYPLGWYRPAPGKDRELVAAITNGGSTYYADSVKGRFTISRDNAKNTDYLQMNSLKPEDTAVYYCAAYYRSRHHGYDSCGQGTQVTVSS | low polyreactivity |
| QVQLVESGGGLVQAGGSLRLSCAASGFMFDDNAMGWYRQAPRKERELVAAITSGGGSTYYADSVKGRFTISRDYAKITVYLLMNSLKPEDTAVYYCAAGGYPSLLHDYDYWGQGTQVTVSS | low polyreactivity |
| QVQLVESGGGLVQAGGSLRLSCAASGFNFGNYAMGWYRQAPGKERELVAVISRGGSTYYADSVKGRFTISRDYAKNSVYLQMNSLKPEDTAVYFCAARAFPPYGYDYWGQGTQVTVSS | high polyreactivity |
| QVQLVESGGGLVQAGGSLRLSCAASGFNFNYNAMGRYREAPGKERELVAAISTSGSSTYYADSVKGRFTISRDNAKNTVYLQMNSLKPEDTAVYYCAARRSTRHRYRVGTCYKYDYWGQGTQVTVSS | high polyreactivity |
| QVQLVESGGGLVQAGGSLRLSCAASGFNFPDYAMGWYRQAPGKETELVAAITSAGGRTYYADSVKGRFTISRDNAKNTVYLQMNSLKPEDTAVFYCNALTTKGTGTYNGGYWGEGTQVTVSS | high polyreactivity |
| QVQLVESGGGLVQAGGSLRLSCAASGFNFRTNAMGWYRQAPGKERELVAAISRSGNTYYADSVKGRFTISRDNAKNTVYLQMNSLKPEDTAVYYCAAQSVRWYSSFKYYYWRQGTQVTVSS | high polyreactivity |
| QVQLVESGGGLVQAGGSLRLSCAASGFNSHFYAMGSYRQAPGKEREFVDRISYSGGSTYYADSVKGRFTISRDNAKNTVYLQMNSLKPEDTAVYFCAADKHYFRHFGSWGQGTQVTVSS | low polyreactivity |
| QVQLVESGGGLVQAGGSLRLSCAASGFPIHAYVMGWYRQAPGKERELVAAISSGGSTYYADSVKGRFTISRDNAKKTVYLQMNSLKPEDTAVYYCAAGYPYYWHFDYWGQGTQVTVSS | low polyreactivity |
| QVQLVESGGGLVQAGGSLRLSCAASGFQYGMGWYRQAPGKERELVAAISRDGSTNYADSVKGRFTISRDNAKNTVYLQMNSLKPEDTAVYYCAVDFYFLYGWGQGTQVTVSS | low polyreactivity |
| QVQLVESGGGLVQAGGSLRLSCAASGFSFKLYAMGWYRQAPGKEREFVAAINRSGGSTYYADSVKGRFTISRDNAKNTVYLQMNSLKPEDTAVYYCAALAYTLYDYWGQGTQVTVSS | high polyreactivity |
| QVQLVESGGGLVQAGGSLRLSCAASGFSFKSYAMGWYRQAPGKERELVAAISRGTSTKYADSVKGRFTISRDNAKNTVYLQMNSLKPEDTAVYNCAALFPTSDLRLRYYRYDYWGQGTQVTVSS | low polyreactivity |
| QVQLVESGGGLVQAGGSLRLSCAASGFSFSRYAMGWYRQAPGKEREFVASITRRGGSTYYADSVKGRFTISRDNAKNTVYLQMNSLKPEDTAVYYCNAGYTWGRFEYWGQGTQVTVSS | high polyreactivity |
| QVQLVESGGGLVQAGGSLRLSCAASGFSFTSNAMAWYRQAPGKERELVAAITTRGGSTYYADSVKGRFTLSRDNAKNTVDLPMNSLKPEDTSVYYCAARYSYWGLLRYDYWGQGTQVTVSS | high polyreactivity |
| QVQLVESGGGLVQAGGSLRLSCAASGFTCASNDMGWSRQAPGKERELVAAITKGGGRTYYADSVKGRFTISRDNAKNTVYLQMNSLKPEDTAVYYCAARQLIKYDYWGPGTQVTVSS | low polyreactivity |
